Measured values reported in paper PMC3384721.
Values joined by “and” are separate entries in the source; they are usually repeats but may differ in a detail not shown here. Equal entries are not always repeated.

Key:
[1] = biological target: A4V mutant copper-zinc superoxide dismutase (A4VSOD1) (human) (UniProt P00441); test: AUC
[2] = biological target: A4V mutant copper-zinc superoxide dismutase (A4VSOD1) (human) (UniProt P00441); test: atomic force microscopy

Substance: A4V mutant copper-zinc superoxide dismutase (A4VSOD1) (from UniProt P00441 6-154) (enzyme)
- percent of total protein as dimer [1]: 31.7%
- percent of total protein as tetramer [1]: 37.6%
- stoichiometry N [1]: 2 and 4
- stoichiometry N [2]: 4
